Experiments:
[1] = molecular target: T1, biotinylated hu-PDL2 (human) (UniProt Q9BQ51); assay: ELISA: construct coated at 1 µg/mL, varying biotinylated hu-PDL2, streptavidin-HRP
T1 sequence (biotinylated, looked up): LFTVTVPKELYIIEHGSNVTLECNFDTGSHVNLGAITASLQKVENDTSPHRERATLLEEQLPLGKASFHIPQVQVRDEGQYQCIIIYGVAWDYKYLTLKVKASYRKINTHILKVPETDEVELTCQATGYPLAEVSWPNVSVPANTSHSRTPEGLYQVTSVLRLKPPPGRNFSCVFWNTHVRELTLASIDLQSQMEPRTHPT

[2] = molecular target: T1, biotinylated hu-PDL2 (human); assay: ELISA: varying concentrations of construct coated, fixed biotinylated hu-PDL2 (500 ng/mL)

Sequence of wild type PD1 construct (wild-type PD1 ECD comparator of anti-IL-23-PD1ecd) (heavy, part): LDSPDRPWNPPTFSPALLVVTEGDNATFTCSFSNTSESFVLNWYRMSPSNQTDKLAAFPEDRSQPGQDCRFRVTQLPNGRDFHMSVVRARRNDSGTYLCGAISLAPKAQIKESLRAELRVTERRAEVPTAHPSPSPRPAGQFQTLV

EC50 [1]: 0.131 µM
EC50 [2]: 6 µM
Substance: wild type PD1 construct (wild-type PD1 ECD comparator of anti-IL-23-PD1ecd)
